A word on the stoichiometry N: it is a count of units in the complex or per binding partner.

The source of these data is paper doi:10.1101/2024.08.03.606473.

In assay [1] the target is SidF C-trim (residues 1-443) (Aspergillus fumigatus) (UniProt Q4WF55). Briefly: SEC.
Assay [2] shares this target. The assay can be described thus: SAXS.

Take “SidF C-trim (residues 1-443) (from UniProt Q4WF55 1-443) (domain or fragment)”: the stoichiometry N in assay [1] amounted to 4; in assay [2], 2.
